Measured values reported in patent US20250218531A1 (ABSCI, published 2025).
Changes are numbered by the printed parent chain.

B1: Trastuzumab HCDR3 variant ARWGNYYYYMDY (Fab, V domains shown)
VH: EVQLVESGGGLVQPGGSLRLSCAASGFNIKDTYIHWVRQAPGKGLEWVARIYPTNGYTRYADSVKGRFTISADTSKNTAYLQMNSLRAEDTAVYYCARWGNYYYYMDYWGQGTLVTVSS
VL: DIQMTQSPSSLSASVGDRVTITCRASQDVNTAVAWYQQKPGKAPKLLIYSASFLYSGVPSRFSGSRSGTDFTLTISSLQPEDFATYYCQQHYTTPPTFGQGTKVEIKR
B2: Trastuzumab HCDR3 variant ARYGAYFYAMDA (Fab, V domains shown)
VH: B1 VH with W99Y, N101A, Y103F, Y105A, Y108A
VL: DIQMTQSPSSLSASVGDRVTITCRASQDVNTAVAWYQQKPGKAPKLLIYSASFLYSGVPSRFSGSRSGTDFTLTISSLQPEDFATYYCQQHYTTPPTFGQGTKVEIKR
B3: Trastuzumab HCDR3 variant ARYGGGYWYFDY (Fab, V domains shown)
VH: B1 VH with W99Y, N101G, Y102G, Y104W, M106F
VL: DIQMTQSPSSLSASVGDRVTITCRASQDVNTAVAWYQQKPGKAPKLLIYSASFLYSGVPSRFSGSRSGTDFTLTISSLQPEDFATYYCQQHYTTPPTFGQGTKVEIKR
B4: Trastuzumab HCDR3 variant ARWLAYWYAMDY (Fab, V domains shown)
VH: B1 VH with G100L, N101A, Y103W, Y105A
VL: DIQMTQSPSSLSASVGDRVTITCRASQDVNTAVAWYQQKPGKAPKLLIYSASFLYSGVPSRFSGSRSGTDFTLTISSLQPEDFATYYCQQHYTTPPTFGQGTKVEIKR
B5: Trastuzumab HCDR3 variant ARWGYYYYYMDY (Fab, V domains shown)
VH: B1 VH with N101Y
VL: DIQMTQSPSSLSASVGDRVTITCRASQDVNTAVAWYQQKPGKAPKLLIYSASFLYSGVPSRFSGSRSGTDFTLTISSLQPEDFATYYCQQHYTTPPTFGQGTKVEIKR
B6: Trastuzumab HCDR3 variant ARYDYGYYIYVS (Fab, V domains shown)
VH: B1 VH with W99Y, G100D, N101Y, Y102G, Y105I, M106Y, D107V, Y108S
VL: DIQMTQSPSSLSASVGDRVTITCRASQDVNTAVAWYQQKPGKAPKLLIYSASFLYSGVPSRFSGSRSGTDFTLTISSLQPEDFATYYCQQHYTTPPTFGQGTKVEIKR
B7: Trastuzumab HCDR3 variant ARYGLYYYYFDY (Fab, V domains shown)
VH: B1 VH with W99Y, N101L, M106F
VL: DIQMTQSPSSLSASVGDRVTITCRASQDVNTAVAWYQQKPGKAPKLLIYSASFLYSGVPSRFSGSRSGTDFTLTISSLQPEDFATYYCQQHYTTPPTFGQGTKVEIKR
B8: Trastuzumab HCDR3 variant ARWYYDYYYMDY (Fab, V domains shown)
VH: B1 VH with G100Y, N101Y, Y102D
VL: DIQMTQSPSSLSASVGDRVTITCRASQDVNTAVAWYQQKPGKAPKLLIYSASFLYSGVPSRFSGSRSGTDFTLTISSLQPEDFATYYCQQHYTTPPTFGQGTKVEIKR
B9: Trastuzumab HCDR3 variant ARYGYGYFYMDY (Fab, V domains shown)
VH: B1 VH with W99Y, N101Y, Y102G, Y104F
VL: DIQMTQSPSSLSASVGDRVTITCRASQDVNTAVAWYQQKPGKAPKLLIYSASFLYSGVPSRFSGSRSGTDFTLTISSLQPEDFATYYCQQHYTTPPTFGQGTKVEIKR
B10: Trastuzumab HCDR3 variant ARYGGYYYYMDY (Fab, V domains shown)
VH: B1 VH with W99Y, N101G
VL: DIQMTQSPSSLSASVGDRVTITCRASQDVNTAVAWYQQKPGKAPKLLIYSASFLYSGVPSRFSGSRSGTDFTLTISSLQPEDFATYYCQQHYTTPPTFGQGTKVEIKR
B11: Trastuzumab HCDR3 variant ARYGTGNYAMDY (Fab, V domains shown)
VH: B1 VH with W99Y, N101T, Y102G, Y103N, Y105A
VL: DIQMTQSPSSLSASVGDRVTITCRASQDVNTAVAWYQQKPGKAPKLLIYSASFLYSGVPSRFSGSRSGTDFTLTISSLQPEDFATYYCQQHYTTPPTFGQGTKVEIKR
B12: Trastuzumab HCDR3 variant ARWYGAYYHMDY (Fab, V domains shown)
VH: B1 VH with G100Y, N101G, Y102A, Y105H
VL: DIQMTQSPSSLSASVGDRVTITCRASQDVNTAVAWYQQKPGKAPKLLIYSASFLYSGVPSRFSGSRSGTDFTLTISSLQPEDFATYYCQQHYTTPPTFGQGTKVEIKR
B13: Trastuzumab HCDR3 variant ARWSSGYYYMDY (Fab, V domains shown)
VH: B1 VH with G100S, N101S, Y102G
VL: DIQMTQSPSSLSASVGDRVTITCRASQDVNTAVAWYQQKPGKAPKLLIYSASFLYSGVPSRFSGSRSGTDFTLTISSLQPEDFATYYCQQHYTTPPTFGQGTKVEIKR
B14: Trastuzumab HCDR3 variant ARYGVVRYDFAY (Fab, V domains shown)
VH: B1 VH with W99Y, N101V, Y102V, Y103R, Y105D, M106F, D107A
VL: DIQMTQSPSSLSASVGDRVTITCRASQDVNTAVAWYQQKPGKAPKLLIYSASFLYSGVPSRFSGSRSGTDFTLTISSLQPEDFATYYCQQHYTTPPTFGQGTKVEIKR
B15: Trastuzumab HCDR3 variant ARYGRGYYYFDY (Fab, V domains shown)
VH: B1 VH with W99Y, N101R, Y102G, M106F
VL: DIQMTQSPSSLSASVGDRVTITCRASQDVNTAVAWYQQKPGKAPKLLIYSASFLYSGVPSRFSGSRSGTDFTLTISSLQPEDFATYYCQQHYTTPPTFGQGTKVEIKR
B16: Trastuzumab HCDR3 variant ARWYGYYYYFDV (Fab, V domains shown)
VH: B1 VH with G100Y, N101G, M106F, Y108V
VL: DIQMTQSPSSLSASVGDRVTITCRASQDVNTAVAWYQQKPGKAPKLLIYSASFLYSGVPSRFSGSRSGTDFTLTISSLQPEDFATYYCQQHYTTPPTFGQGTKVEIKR
B17: Trastuzumab HCDR3 variant ARWPGGYYHMDY (Fab, V domains shown)
VH: B1 VH with G100P, N101G, Y102G, Y105H
VL: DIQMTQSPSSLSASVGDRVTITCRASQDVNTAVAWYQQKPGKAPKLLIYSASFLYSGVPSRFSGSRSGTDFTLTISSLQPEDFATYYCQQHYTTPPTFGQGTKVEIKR
B18: Trastuzumab HCDR3 variant ARWSYGYYNFDY (Fab, V domains shown)
VH: B1 VH with G100S, N101Y, Y102G, Y105N, M106F
VL: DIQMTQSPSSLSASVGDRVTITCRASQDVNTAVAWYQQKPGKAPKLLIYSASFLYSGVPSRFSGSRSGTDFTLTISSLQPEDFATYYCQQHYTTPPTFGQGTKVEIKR
B19: Trastuzumab HCDR3 variant ARYDIGYYDMDK (Fab, V domains shown)
VH: B1 VH with W99Y, G100D, N101I, Y102G, Y105D, Y108K
VL: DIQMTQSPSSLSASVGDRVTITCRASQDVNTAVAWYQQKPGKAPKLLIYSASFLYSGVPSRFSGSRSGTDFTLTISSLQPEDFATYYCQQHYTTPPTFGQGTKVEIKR
B20: Trastuzumab HCDR3 variant ARYGYGYYVMDY (Fab, V domains shown)
VH: B1 VH with W99Y, N101Y, Y102G, Y105V
VL: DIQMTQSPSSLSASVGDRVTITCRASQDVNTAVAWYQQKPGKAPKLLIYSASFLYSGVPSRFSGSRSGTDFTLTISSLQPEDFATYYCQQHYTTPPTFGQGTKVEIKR
B21: Trastuzumab HCDR3 variant ARYGSYNYYFGD (Fab, V domains shown)
VH: B1 VH with W99Y, N101S, Y103N, M106F, D107G, Y108D
VL: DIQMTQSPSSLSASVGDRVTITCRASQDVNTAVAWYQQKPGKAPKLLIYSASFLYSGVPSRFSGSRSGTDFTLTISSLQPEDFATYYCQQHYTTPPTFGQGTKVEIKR
B22: Trastuzumab HCDR3 variant ARWGYGYYYFDY (Fab, V domains shown)
VH: B1 VH with N101Y, Y102G, M106F
VL: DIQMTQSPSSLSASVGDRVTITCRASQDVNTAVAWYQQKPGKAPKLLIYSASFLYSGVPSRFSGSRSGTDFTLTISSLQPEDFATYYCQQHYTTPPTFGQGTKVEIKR
B23: Trastuzumab HCDR3 variant ARWGYYYYAMDY (Fab, V domains shown)
VH: B1 VH with N101Y, Y105A
VL: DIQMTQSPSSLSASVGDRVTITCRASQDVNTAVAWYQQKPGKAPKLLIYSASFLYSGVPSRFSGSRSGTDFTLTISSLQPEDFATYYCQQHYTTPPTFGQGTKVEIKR
B24: Trastuzumab HCDR3 variant ARYGYDGYYFAY (Fab, V domains shown)
VH: B1 VH with W99Y, N101Y, Y102D, Y103G, M106F, D107A
VL: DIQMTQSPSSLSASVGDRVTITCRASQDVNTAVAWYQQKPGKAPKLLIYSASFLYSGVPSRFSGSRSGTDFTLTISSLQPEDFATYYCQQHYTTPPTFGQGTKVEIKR
B25: Trastuzumab HCDR3 variant ARYGTIYFHFDY (Fab, V domains shown)
VH: B1 VH with W99Y, N101T, Y102I, Y104F, Y105H, M106F
VL: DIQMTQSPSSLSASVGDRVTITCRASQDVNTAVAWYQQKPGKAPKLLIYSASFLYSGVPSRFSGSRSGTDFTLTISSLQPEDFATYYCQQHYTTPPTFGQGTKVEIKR
B26: Trastuzumab HCDR3 variant ARYGLGYYYFDY (Fab, V domains shown)
VH: B1 VH with W99Y, N101L, Y102G, M106F
VL: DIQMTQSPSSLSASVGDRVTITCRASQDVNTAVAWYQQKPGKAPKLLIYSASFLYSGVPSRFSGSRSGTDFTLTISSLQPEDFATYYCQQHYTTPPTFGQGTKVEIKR
B27: Trastuzumab HCDR3 variant ARYGWGYYYFDY (Fab, V domains shown)
VH: B1 VH with W99Y, N101W, Y102G, M106F
VL: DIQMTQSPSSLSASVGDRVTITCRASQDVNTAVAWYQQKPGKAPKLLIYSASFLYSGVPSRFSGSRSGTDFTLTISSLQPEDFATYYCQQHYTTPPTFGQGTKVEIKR
B28: Trastuzumab HCDR3 variant ARWGSGYYYMDY (Fab, V domains shown)
VH: B1 VH with N101S, Y102G
VL: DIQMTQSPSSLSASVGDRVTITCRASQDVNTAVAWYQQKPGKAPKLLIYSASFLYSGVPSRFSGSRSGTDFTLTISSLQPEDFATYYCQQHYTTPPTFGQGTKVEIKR
B29: Trastuzumab HCDR3 variant ARYGGGYYYYDY (Fab, V domains shown)
VH: B1 VH with W99Y, N101G, Y102G, M106Y
VL: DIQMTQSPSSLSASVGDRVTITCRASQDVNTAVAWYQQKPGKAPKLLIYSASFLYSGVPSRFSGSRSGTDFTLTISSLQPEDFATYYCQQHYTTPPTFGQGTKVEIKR
B30: Trastuzumab HCDR3 variant ARYGGFYYYFDY (Fab, V domains shown)
VH: B1 VH with W99Y, N101G, Y102F, M106F
VL: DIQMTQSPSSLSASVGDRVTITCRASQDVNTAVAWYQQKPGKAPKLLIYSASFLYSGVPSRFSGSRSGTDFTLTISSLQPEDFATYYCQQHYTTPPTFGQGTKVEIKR
B31: Trastuzumab HCDR3 variant ARYFGGSYAYVY (Fab, V domains shown)
VH: B1 VH with W99Y, G100F, N101G, Y102G, Y103S, Y105A, M106Y, D107V
VL: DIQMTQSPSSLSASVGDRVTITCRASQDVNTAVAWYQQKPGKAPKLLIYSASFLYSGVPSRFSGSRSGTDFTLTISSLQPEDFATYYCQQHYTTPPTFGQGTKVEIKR
B32: Trastuzumab HCDR3 variant ARWGYDYYYFAY (Fab, V domains shown)
VH: B1 VH with N101Y, Y102D, M106F, D107A
VL: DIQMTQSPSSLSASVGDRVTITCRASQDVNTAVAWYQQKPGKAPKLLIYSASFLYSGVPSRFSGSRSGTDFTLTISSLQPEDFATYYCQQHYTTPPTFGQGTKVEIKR
B33: Trastuzumab HCDR3 variant ARYGGGFYAMDY (Fab, V domains shown)
VH: B1 VH with W99Y, N101G, Y102G, Y103F, Y105A
VL: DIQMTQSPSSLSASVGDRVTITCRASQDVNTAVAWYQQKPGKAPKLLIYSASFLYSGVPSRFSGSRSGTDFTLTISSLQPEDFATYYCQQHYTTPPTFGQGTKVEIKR
B34: Trastuzumab HCDR3 variant ARYGYGYYYMDY (Fab, V domains shown)
VH: B1 VH with W99Y, N101Y, Y102G
VL: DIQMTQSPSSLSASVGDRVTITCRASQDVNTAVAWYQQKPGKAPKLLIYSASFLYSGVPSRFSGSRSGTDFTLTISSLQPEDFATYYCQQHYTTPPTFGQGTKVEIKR
B35: Trastuzumab HCDR3 variant ARWYGGYYMYDY (Fab, V domains shown)
VH: B1 VH with G100Y, N101G, Y102G, Y105M, M106Y
VL: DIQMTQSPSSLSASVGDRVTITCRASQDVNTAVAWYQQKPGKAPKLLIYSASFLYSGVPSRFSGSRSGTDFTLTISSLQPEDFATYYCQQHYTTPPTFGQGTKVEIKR
B36: Trastuzumab HCDR3 variant ARWYGGYYHHDY (Fab, V domains shown)
VH: B1 VH with G100Y, N101G, Y102G, Y105H, M106H
VL: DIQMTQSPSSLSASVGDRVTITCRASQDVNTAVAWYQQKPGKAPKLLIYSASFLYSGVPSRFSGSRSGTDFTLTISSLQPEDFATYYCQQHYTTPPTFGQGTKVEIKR
B37: Trastuzumab HCDR3 variant ARYGLGYYYMDY (Fab, V domains shown)
VH: B1 VH with W99Y, N101L, Y102G
VL: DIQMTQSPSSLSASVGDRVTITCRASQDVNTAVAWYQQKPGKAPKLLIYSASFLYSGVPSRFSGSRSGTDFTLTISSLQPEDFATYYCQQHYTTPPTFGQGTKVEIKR
B38: Trastuzumab HCDR3 variant ARYGSYFYYMDY (Fab, V domains shown)
VH: B1 VH with W99Y, N101S, Y103F
VL: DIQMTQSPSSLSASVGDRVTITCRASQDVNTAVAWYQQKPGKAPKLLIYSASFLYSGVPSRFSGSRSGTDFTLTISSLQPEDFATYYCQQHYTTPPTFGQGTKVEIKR
B39: Trastuzumab HCDR3 variant ARWQGGYYYWDF (Fab, V domains shown)
VH: B1 VH with G100Q, N101G, Y102G, M106W, Y108F
VL: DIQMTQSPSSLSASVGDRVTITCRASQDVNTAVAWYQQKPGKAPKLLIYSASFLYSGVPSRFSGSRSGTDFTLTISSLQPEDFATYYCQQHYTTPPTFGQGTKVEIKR

Each binder was assayed against T1, HER2 (human epidermal growth factor receptor 2) (human, UniProt P04626 23-629) (assay: SPR).
T1 construct: also called Antigen: HER2

Binder | Kd [nM] | log(KD (M))
B1 | 1.69 | -8.77
B2 | 18.6 | -7.73
B3 | 23.4 | -7.63
B4 | 3.55 | -8.45
B5 | 2.28 | -8.64
B6 | 9.49 | -8.02
B7 | 15.5 | -7.81
B8 | 13.9 | -7.86
B9 | 21.9 | -7.66
B10 | 16.3 | -7.79
B11 | 26.3 | -7.58
B12 | 5.59 | -8.25
B13 | 12 | -7.92
B14 | 20.5 | -7.69
B15 | 26.8 | -7.57
B16 | 11.2 | -7.95
B17 | 8.49 | -8.07
B18 | 1.98 | -8.7
B19 | 27 | -7.57
B20 | 8.65 | -8.06

Binder | Kd [nM] | log(KD (M))
B21 | 13.6 | -7.87
B22 | 25.2 | -7.6
B23 | 22.6 | -7.65
B24 | 22.2 | -7.65
B25 | 23.9 | -7.62
B26 | 15.7 | -7.8
B27 | 14.7 | -7.83
B28 | 4.46 | -8.35
B29 | 9.11 | -8.04
B30 | 6.17 | -8.21
B31 | 11.2 | -7.95
B32 | 26.5 | -7.58
B33 | 22.4 | -7.65
B34 | 12.2 | -7.91
B35 | 19.1 | -7.72
B36 | 8.57 | -8.07
B37 | 10.5 | -7.98
B38 | 6.53 | -8.19
B39 | 13.8 | -7.86
